Data taken from patent publication US6506732B1, “Enzymatic hydrolysate of milk proteins” (Universite Laval, priority 1999, dated 2003).

Assay: Hydrophobicity of peptides of subfraction SF4
Assay type: physicochemical
Details: single peptides of subfraction SF4
Protocol: Further separation of the third fraction (F3) on preparative High Pressure Liquid Chromatography (HPLC) using TSK G2000 SW column and a 5 mM ammonium acetate buffer mobile phase adjusted to pH 6.5 gives five subfractions (SF1 to SF5). Composition of subfraction four (SF4), obtained by RP-HPLC using C-18™ column, containing fifteen peptides having average molecular weight of 900 daltons (200 to 1400 daltons) and average hydrophobicity of 11.7 Kcal/mole (5 to 20 Kcal/mole) is presented in Table 2.

Compared with “INNQFLPYPY (Peptide from enzymatic hydrolysate of milk proteins) [Casein κ 51-60, peptide of SF4]”, “VLVL (Peptide from enzymatic hydrolysate of milk proteins) [β-Lactoglobulin 92-95, peptide of SF4]” is lower in Hydrophobicity: 83.3 kJ/mol for the first, 34.3 kJ/mol for the second.

First: LQSW (Peptide from enzymatic hydrolysate of milk proteins) [Casein β 140-143, peptide of SF4]
Second: VPLGTQY (Peptide from enzymatic hydrolysate of milk proteins) [Casein α-s1 167-173, peptide of SF4]
The Hydrophobicity of the first is lower: 22.2 kJ/mol for the first, 41.4 kJ/mol for the second.

First: VLPVPQK (Peptide from enzymatic hydrolysate of milk proteins) [Casein β 170-176, peptide of SF4]
Second: LLY (UniProt P02666 206-208, looked up, fragment) [Casein β 191-193, peptide of SF4]
The Hydrophobicity of the first is higher: 51.5 kJ/mol for the first, 32.2 kJ/mol for the second.

Going from “QGPIVLNPW (Peptide from enzymatic hydrolysate of milk proteins) [Casein α-s2 101-109, peptide of SF4]” to “LYQGPIVL (Peptide from enzymatic hydrolysate of milk proteins) [Casein α-s2 99-106, peptide of SF4]”, the Hydrophobicity rises from 63.2 kJ/mol to 74.1 kJ/mol.

Going from “YGLNYYQQKPVA (Peptide from enzymatic hydrolysate of milk proteins) [Casein κ 38-49, peptide of SF4]” to “LYQEPVL (Peptide from enzymatic hydrolysate of milk proteins) [Casein β 192-198, peptide of SF4]”, the Hydrophobicity falls from 60.2 kJ/mol to 38.9 kJ/mol.

Going from “SPAQILQWQVL (Peptide from enzymatic hydrolysate of milk proteins) [Casein κ 69-79, peptide of SF4]” to “YL: Casein α-s1 91-92, peptide of SF4 (UniProt P02662 106-107, looked up, fragment)”, the Hydrophobicity falls from 64.9 kJ/mol to 22.2 kJ/mol.

Compared with “IPIQY (Peptide from enzymatic hydrolysate of milk proteins) [Casein κ 26-30, peptide of SF4]”, “ALPQYL (Peptide from enzymatic hydrolysate of milk proteins) [Casein α-s2 175-180, peptide of SF4]” is lower in Hydrophobicity: 47.3 kJ/mol for the first, 45.6 kJ/mol for the second.

“YVPLGTQY (Peptide from enzymatic hydrolysate of milk proteins) [Casein α-s1 166-173, peptide of SF4]” gave a Hydrophobicity of 53.1 kJ/mol.
